Ends that are not written are not given here.
Tested on: Dextran Sodium Sulphate (DSS)-induced colitis
Assay: 10-Day Dextran Sodium Sulphate (DSS)-induced colitis model in the mouse
Type: in vivo, Male C57BL/6 mice
Design: key to Disease Activity Index (DAI): clinical DAI score, daily maximum 12
Settings: for Disease Activity Index (DAI): mean ± SEM, n=10; for additional DAI score without the change in body weight (only stool consistency and rectal bleeding): oral, 10-day treatment; for additional DAI score without the change in body weight (only stool consistency and rectal bleeding) / inhibition of the disease activity index (DAI): vs. vehicle
Description: 10-Day Dextran Sodium Sulphate (DSS)-Induced Colitis Model in the Mouse
The aim of the following study was to determine the anti-inflammatory activity of human beta defensin 2 in an acute (10-days) model of inflammatory bowel disease (colitis) induced by oral dextran sodium sulphate (DSS) administration in the mouse.
Study design: animals were divided into 5 experimental groups. Each group consisted of 10 males: Group A: Treated with Control vehicle (PBS) p.o. twice daily. Group B: Treated with methylprednisolone (1 mg/kg p.o. twice daily). Group C: Treated with hBD2 (0.05 mg/kg p.o. twice daily). Group D: Treated with hBD2 (0.5 mg/kg p.o. […]). Group E: Treated with hBD2 (5 mg/kg p.o. […]). Animal allocation to all experimental groups was done in a randomized manner. A maximum of 5 mice were housed in each cage (as per Directive 86/609/EEC). All animals were weighed on their arrival at the laboratory and prior to the administration of the test items.
The control vehicle and hBD2 were administered orally with the use of a sterile cannula in a dosing volume of 10 ml/kg body weith. The animals of all groups recieved 2 doses daily (at 9.00 h and 17.00 h) of the corresponding test item (test, reference or vehicle) for 10 consecutive days (experimental days 1-10).
Colitis was induced in mice by supplementing their drinking water with DSS 2% for 7 days. On Day 1 all mice were weighed and marked according to their experimental groups. The drinking bottle of each cage was filled with the DSS solution, making sure all bottle lids were mounted properly and that none were congested. On Day 3 any remaining solution in the bottles was emptied and refilled with fresh DSS solution. This procedure was repeated again on Day 5. On Day 8 any remaining solution was discarded and replaced with autoclaved water. Animals were sacrificed 2 days later on Day 10.
Daily clinical assessment of DSS-treated animals was carried out, with the calculation of a validated clinical Disease Activity Index (DAI) ranging from 0 to 4 according to the following parameters: stool consistency, presence or absence of rectal bleeding and weight loss:
Bodyweight loss was calculated as the percent difference between the original bodyweight (Day 1) and the actual bodyweight on each experimental day (2-10). The appearance of diarrhoea is defined as mucus/faecal material adherent to anal fur. Rectal bleeding is defined as diarrhoea containing visible blood/mucus or gross rectal bleeding. The maximum score of the DAI each day is 12.
On day 10, two hours after the last administration of control vehicle, hBD2 or prednisolone, the animals were killed by an overdose of anaesthetic. Their colons were removed and their length and weight measured after exclusion of the caecum. Two sections (proximal and distal) of colon were taken from each animal and preserved in neutral buffered formalin for subsequent histological analysis (haematoxylin and eosin staining) according to the following scoring system:
Description Score: No changes observed (0). Minimal scattered mucosal inflammatory cell infiltrates, with or without minimal epithelial hyperplasia (1). Mild scattered to diffuse inflammatory cell infiltrates, sometimes extending into the submucosa and associated with erosions, with minimal to mild epithelial hyperplasia and minimal to mild mucin depletion from goblet cells (2). Mild to moderate inflammatory cell infiltrates that were sometimes transmural, often associated with ulceration, with moderate epithelial hyperplasia and mucin depletion (3). Marked inflammatory cell infiltrates that were often transmural and associated with ulceration, with marked epithelial hyperplasia and mucin depletion (4). Marked transmural inflammation with severe ulceration and loss of intestinal glands (5). […]

[1] = prednisolone 1 mg/kg p.o. twice daily (Group B), day 10

## C[C@H]1C[C@@H]2[C@H]([C@@H](O)C[C@@]3(C)[C@H]2CC[C@]3(O)C(=O)COC(=O)CCC(=O)O)[C@@]2(C)C=CC(=O)C=C12 [Methylprednisolone 21-hemisuccinate, reference compound]
Prednisolone 1 mg/kg p.o. twice daily, Day 6 as printed, P < 0.01 vs. vehicle
  Disease Activity Index (DAI): 7 ± 0.33
  additional DAI score without the change in body weight (only stool consistency and rectal bleeding): very significant anti-inflammatory activity
[1]
  histological injury induced by DSS in the distal colon: significantly reduced
  histological injury induced by DSS in the proximal colon: significantly reduced
Prednisolone 1 mg/kg p.o. twice daily (group B), from day 2 until the end of the study
  body weight: significant decrease
Reference item prednisolone 1 mg/kg p.o. twice daily
  inhibition of the disease activity index (DAI): significant inhibition

## Human beta defensin 2 (GIGDPVTCLKSGAICHPVFCPRRYKQIGTCGLPGTKCCKKP; ends and bridges not checked; cysteine pairing not given here; listed as Homo sapiens) [hBD2, human beta defensin 2 (hBD2]
hBD2 0.05 mg/kg p.o., Day 6, max score 12, P < 0.01 vs. vehicle
  Disease Activity Index (DAI): 1.2 ± 0.59
hBD2 0.05 mg/kg p.o., Day 7, P < 0.05 vs. vehicle
  Disease Activity Index (DAI): 1.9 ± 0.66
hBD2 0.05 mg/kg p.o., Day 8, P < 0.001 vs. vehicle
  Disease Activity Index (DAI): 4.5 ± 0.86
hBD2 0.05 mg/kg p.o., Day 9, P < 0.001 vs. vehicle
  Disease Activity Index (DAI): 5.6 ± 0.54
hBD2 0.05 mg/kg p.o., Day 10, P < 0.05 vs. vehicle
  Disease Activity Index (DAI): 8 ± 0.73
hBD2 0.5 mg/kg p.o., Day 6, P < 0.05 vs. vehicle
  Disease Activity Index (DAI): 1.7 ± 0.67
hBD2 0.5 mg/kg p.o., Day 9, P < 0.05 vs. vehicle
  Disease Activity Index (DAI): 7.1 ± 0.61
hBD2 0.5 mg/kg p.o., Day 10, P < 0.01 vs. vehicle
  Disease Activity Index (DAI): 7.3 ± 0.7
hBD2 5 mg/kg p.o., Day 3, P < 0.05 vs. vehicle
  Disease Activity Index (DAI): 0.5 ± 0.27
hBD2 5 mg/kg p.o., Day 4, P < 0.05 vs. vehicle
  Disease Activity Index (DAI): 0.6 ± 0.27
hBD2 5 mg/kg p.o., Day 5, P < 0.05 vs. vehicle
  Disease Activity Index (DAI): 1.8 ± 0.76
hBD2 5 mg/kg p.o., Day 6, P < 0.05 vs. vehicle
  Disease Activity Index (DAI): 1.4 ± 0.6
hBD2 5 mg/kg p.o., Day 7, P < 0.05 vs. vehicle
  Disease Activity Index (DAI): 2.1 ± 0.96
hBD2 5 mg/kg p.o., Day 8, P < 0.01 vs. vehicle
  Disease Activity Index (DAI): 5.4 ± 0.87
hBD2 5 mg/kg p.o., Day 9, P < 0.001 vs. vehicle
  Disease Activity Index (DAI): 5.2 ± 0.76
hBD2 5 mg/kg p.o., Day 10, P < 0.001 vs. vehicle
  Disease Activity Index (DAI): 5.6 ± 0.48
hBD2 at three dose levels (0.05, 0.5, 5 mg/kg) via the oral route
  inhibition of the disease activity index (DAI): significant inhibition
hBD2 twice daily, at 3 dose levels, p.o., day 10
  histological damage in the proximal colon: significant reduction
hBD2 twice daily, at the intermediate and high dose levels, p.o., day 10
  histological damage in the distal colon: significant reduction
High dose of the test item (5 mg/kg p.o.), day 10, P<0.05
  body weight compared to the control group: significant increase
  additional DAI score without the change in body weight (only stool consistency and rectal bleeding): very significant anti-inflammatory activity
